This assay addresses T1, chicken Scap-3xFLAG (pEZT-cScap-3xFLAG WT) expressed in HEK 293T cells (Gallus gallus).
T1 chain: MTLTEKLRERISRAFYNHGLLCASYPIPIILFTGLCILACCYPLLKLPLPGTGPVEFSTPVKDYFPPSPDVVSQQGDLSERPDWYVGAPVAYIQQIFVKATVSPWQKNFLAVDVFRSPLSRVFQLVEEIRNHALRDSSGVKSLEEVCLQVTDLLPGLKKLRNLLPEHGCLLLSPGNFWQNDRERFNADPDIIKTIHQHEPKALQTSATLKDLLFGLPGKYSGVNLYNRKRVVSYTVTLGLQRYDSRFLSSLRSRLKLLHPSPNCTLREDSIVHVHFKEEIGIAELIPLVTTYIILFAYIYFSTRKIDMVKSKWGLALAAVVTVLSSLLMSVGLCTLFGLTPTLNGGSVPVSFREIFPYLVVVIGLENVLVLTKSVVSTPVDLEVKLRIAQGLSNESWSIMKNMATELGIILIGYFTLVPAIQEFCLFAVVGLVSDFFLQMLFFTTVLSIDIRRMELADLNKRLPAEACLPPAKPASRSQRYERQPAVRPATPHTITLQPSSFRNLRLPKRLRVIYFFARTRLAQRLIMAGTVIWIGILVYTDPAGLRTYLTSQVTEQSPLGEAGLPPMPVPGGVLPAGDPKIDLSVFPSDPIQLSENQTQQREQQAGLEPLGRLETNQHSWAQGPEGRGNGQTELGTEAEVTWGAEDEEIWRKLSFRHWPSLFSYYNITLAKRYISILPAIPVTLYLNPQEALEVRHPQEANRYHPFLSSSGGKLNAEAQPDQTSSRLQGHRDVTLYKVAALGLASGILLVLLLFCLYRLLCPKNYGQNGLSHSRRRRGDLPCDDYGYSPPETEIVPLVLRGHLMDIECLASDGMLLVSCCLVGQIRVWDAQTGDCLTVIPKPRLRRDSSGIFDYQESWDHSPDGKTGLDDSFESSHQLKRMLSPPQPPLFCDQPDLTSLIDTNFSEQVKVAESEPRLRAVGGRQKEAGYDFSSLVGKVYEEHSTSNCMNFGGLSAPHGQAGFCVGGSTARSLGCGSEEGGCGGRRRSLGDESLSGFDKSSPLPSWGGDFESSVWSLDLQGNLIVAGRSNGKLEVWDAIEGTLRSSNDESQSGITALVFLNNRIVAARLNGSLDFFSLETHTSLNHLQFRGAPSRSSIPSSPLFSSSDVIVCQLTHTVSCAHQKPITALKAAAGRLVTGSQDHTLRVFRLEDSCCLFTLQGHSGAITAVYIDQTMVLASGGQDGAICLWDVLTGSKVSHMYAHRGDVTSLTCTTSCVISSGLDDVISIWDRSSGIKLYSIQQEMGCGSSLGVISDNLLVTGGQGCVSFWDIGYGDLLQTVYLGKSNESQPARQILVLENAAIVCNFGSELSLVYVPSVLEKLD
Put plainly: pull-down.

The values that follow come from PMC8277531 (Cell, 2021).

B1: Fab fragment derived from mouse monoclonal IgG 4G10 (Fab, V domains shown)
VH: EVQLQQSGAELVRPGASVKLSCTASGFKIKDDYIHWVKQRPEQGLEWIGRIDPANGHTRYAPKFQDKATITADTSSNTAYLQLSSLTSEDTAVYYCTRYNDYDAFYFDYWGQGTTLTVSS
VL: DIQMTQTTSSLSASLGDRVTISCRASQDIRNYLNWYQQKPDGTVKLLIYYTSRLHSGVPSRFSGSGSGTDYSLTISNLEQEDIATYFCQQTNTLPWTFGGGTKVEIK
Regarding B1, the binding result was “binds”.
